Data set [1] concerns the target T1, model peptide 3, AIYRRGRLYRRDHV
T1 chain: AIYRRGRLYRRDHV

Data set [2] concerns the target T2, model peptide 1, AIYRRGRLYRRNHV
T2 chain: AIYRRGRLYRRNHV

Data set [3] addresses T3, model peptide 2, …(OH)HV.
T3 chain: AIYRRGRLYRRXHV

Data set [4] has as its target T4, model peptide 4, AIYRRGRLYRRNSL
T4 chain: AIYRRGRLYRRNSL

Data set [5] concerns the target T5, model peptide 5, …(OH)SL.
T5 chain: AIYRRGRLYRRXSL

The target in data set [6] is T6, model peptide 6, AIYRRGRLYRRDSL
T6 chain: AIYRRGRLYRRDSL

B1: butelase-1 (protein)
chain: VEGTRWAVLVAGSKGYVNYRHQADVCHAYQILKKGGLKDENIIVFMYDDIAYNESNPHPGVIINHPYGSDVYKGVPKDYVGEDINPPNFYAVLLANKSALTGTGSGKVLDSGPNDHVFIYYTDHGGAGVLGMPSKPYIAASDLNDVLKKKHASGTYKSIVFYVESCESGSMFDGLLPEDHNIYVMGASDTGESSWVTYCPLQHPSPPPEYDVCVGDLFSVAWLEDCDVHNLQTETFQQQYEVVKNKTIVALIEDGTHVVQYGDVGLSKQTLFVYMGTDPAN
Take B1: the values for the Km in data set [1], in data set [2] and in data set [3] were 630 µM, 67.5 µM and 98.8 µM, respectively.

B2: VyPAL2 (protein)
chain: DSIGTRWAVLIAGSKGYHNYRHQADVCHMYQILRKGGVKDENIIVFMYDDIAYNESNPFPGIIINKPGGENVYKGVPKDYTGEDINNVNFLAAILGNKSAIIGGSGKVLDTSPNDHIFIYYADHGAPGKIGMPSKPYLYADDLVDTLKQKAATGTYKSMVFYVEACNAGSMFEGLLPEGTNIYAMAASNSTEGSWITYCPGTPDFPPEFDVCLGDLWSITFLEDCDAHNLRTETVHQQFELVKKKIAYASTVSQYGDIPISKDSLSVYM
B2: the Michaelis constant (Km) (as a rule, the concentration of substrate that gives half-maximal velocity) was 42.5 µM in data set [4], 120 µM in data set [5] and 2070 µM in data set [6].

These data come from patent US20240167070.
